According to the RNAGym collection of RNA variant scans (doi:10.1073/pnas.2313332121):
This sample holds only a part of the variants without activity.

B1: TPR 5TU (parent)
chain: GGAUCUUCUCGAUCUAACAAAAAAGACAAAUCUGCCACAAAGCUUGAGAGCAUCUUCGGAUGCAGAGGCGGCAGCCUUCGGUGGCGCGAUAGCGCCAACGUUCUCAACUAUGACACGCAAAACGCGUGCUCCGUUGAAUGGAGUUUAUCAUG

Variants of: B1
Assay: polymerase ribozyme fitness, log enrichment relative to wild type (log ratio); higher = more active; in vitro selection for triplet polymerase activity
Outline: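 For each subunit of a heterodimeric triplet polymerase ribozyme, a mutant library was built by PCR and transcribed, then taken through a single in vitro selection round in triplicate. Selection involved annealing to a biotinylated primer, the partner subunit and triplets, incubation frozen at −7 °C, gel excision of extended constructs, capture on streptavidin beads and RT-PCR. Genotypes were retained after Illumina sequencing of inputs and outputs only with ≥10 input reads and ≥1 read in each output. Fitness is defined as the logarithm of a genotype's enrichment relative to wild-type enrichment, using inverse-variance-weighted averages across replicates, with the logarithm taken to base 2.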

Variant | polymerase ribozyme fitness (log ratio)
C5U U45A G50U G86C C96U | ≤ -4.2
C5G G59U C99U A119G | -1.53
C5G C14G G48C C57A A73C C87U C118U A121G C123U G140C | ≤ -4.2
C5G U13C A17C G83U U134C A137C | ≤ -4.2
C5G G92A C96A | -3.11
U6A G88C C116U | ≤ -4.2
C5G G34A C38U C43U G83A | ≤ -4.2
C5U U13G A20C C27G G80A C87U U148G | ≤ -4.2
U6A G34A C69U A73G U77A C79A C87A C96U C105A A107U G136A U139A | ≤ -4.2
C5U G84U U148G | ≤ -4.2
C5U G74A A91U C93G | ≤ -4.2
C5U A20C A29G A115C U130G C132U U146C | ≤ -4.2
C5G G11A A73G C76U | -2.17
U6C G11C A16C G58C A142C | -3.7
C5U A24U C32G U53G C123G A147G U151G | ≤ -4.2
U6C U31G G50C C69G G94C A119U U151A | ≤ -4.2
U6A U44G A98U A107U | -1.58
C5U U33A G88U C96U U127C | ≤ -4.2
C5G U6G C38U A41U A47U G86A A91C | ≤ -4.2
C5G C18A A23G C54G G67A C93G C99G | ≤ -4.2
U6A A12C G58U A91C A98U C103G C131U | ≤ -4.2

Variant | polymerase ribozyme fitness (log ratio)
C5G C93U | -2.31
C5G C93G | -2.51
U6A G42C A49C A52C C75U C85U A91U | ≤ -4.2
U6C A23G A91U A106G | ≤ -4.2
U6C G11A A37G A52G G86A G100A | ≤ -4.2
U6C A39C A66G U90A C93A C99A G100C C103A C116G A147C | ≤ -4.2
U6C C63U A138G | -4.08
C5U A29U G62A G67C A142U | ≤ -4.2
U6A A29G G74A C103G A107G A122U | ≤ -4.2
C5G G34A U134A | -3.83
U6A A16U A107C C131G | ≤ -4.2
C5G G83A | -1.24
C5U C27G C95U C96U G141C | ≤ -4.2
U6A U7G C36U C85A U144A | ≤ -4.2
U6G | 0.0167
U6A | 0.197
U6C | -0.0891
C5U | 0.998
C5U A19G U77A C95U | ≤ -4.2
U6G A20U C93A C116A U135A | -3.29
C5U A19G C57U G84U G117U A120U | -2.48

Variant | polymerase ribozyme fitness (log ratio)
C5G C8G C85A G126U | ≤ -4.2
U6A A52C G81U C85G | -3.49
C5G C96U | -0.763
C5U C51A | -0.999
C5U U13A A23G C36U G46A A97U C103U | ≤ -4.2
C5U U56A C75U G83C | -0.766
C5G C38U A39C C95A G100C | ≤ -4.2
C5G G50C | -3.2
U6A A23C G68U G100U C131U G143U | ≤ -4.2
C5G U82G G86U A121G | -2.13
U6C C93G | -3.54
C5U G46U C85G | -2.05
C5U U15G A39C A66U C95U | -4.2
C5G U55G C85U C99A | -2.86
C5G U6G U7G C14G A28C A30C G50C C51G A89G C93G G94U C105U C118A G133A | ≤ -4.2
C5U C8U A23C C85U C103A C116U | ≤ -4.2
U6C U13G C43G C76U U90A U151G | ≤ -4.2
U6A C57G A64G C76U C87A | ≤ -4.2
C5U U13A C57G G141U | -1.34
C5G U56A G84U U144A | -3.4
C5U A24G G94A C123U G140U | ≤ -4.2

Variant | polymerase ribozyme fitness (log ratio)
U6C G94A C105U U127A | ≤ -4.2
U6A C27U A41C U55A G62C G71C C85A G143U | ≤ -4.2
C5U A16C C51U | -1.73
C5U A28U A40U C57U G83C A89G | ≤ -4.2
C5U C51U G84A A150G | -2.47
C5G U101G | 0.0588
U6A C18G U56A A106G | -0.358
U6A G86A C87G | ≤ -4.2
U6C U31C C57A C96G | -1.1
C5U A37U C69U C95U | -1.02
U6C A24U A40C U56A A73U C76G C129U | ≤ -4.2
C5G U45G G86U C93G A97G | -3.16
U6A A24U G81U C85G G140U | ≤ -4.2
U6A C93A | -2.58
C5G U15G A52G | -1.06
C5G U53G C54A C96U U135A | -3.79
U6C A19C A26G C85G C108A | ≤ -4.2
U6C C87U | -1.52
U6C C87A | ≤ -4.2
U6C A60U G86A | -3.49
U6G A19U G50C G88U C99G | ≤ -4.2
